Patent publication US20250154240A1 (CHIOME BIOSCIENCE, published 2025)
Changes are numbered by the printed parent chain. Each block holds one binder with its values, some of them ahead of it.

Tests used:
human CXCL1 protein [1] = target: T1, human CXCL1 protein (human, UniProt P09341 35-107); assay: cell-based or functional assay
T1 sequence: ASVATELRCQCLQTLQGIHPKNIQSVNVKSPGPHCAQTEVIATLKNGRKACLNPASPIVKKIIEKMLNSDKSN

human CXCL1 protein [2] = target: T1, human CXCL1 protein; assay: antigen-immobilized ELISA, HuCXCL1 on the plate, absorbance (lower left panel)
human CXCL1 protein [3] = target: T1, human CXCL1 protein; assay: blocking ELISA: HuCXCL1 immobilised, antibody 0 to 10 µg/mL, then biotin-labeled heparin 10 µg/mL (blocked ligand: heparin); panel HuCXCL1
Method: (§1) Thus, the effect of Hu5A-5E11 on the binding of CXCLs to GAG was evaluated by ELISA assay using plates on which the antigen (HuCXCL1 protein) used for immunization or HuCXCL2, 3 and 5 and MsCXCL1 and 2 proteins had been directly immobilized. CXCLs other than HuCXCL1 were purchased from PROTEINTECH and used. Biotin-labeled heparan sulfate and heparin were purchased from PG Research and used.
(§2) To 96-well plates, phosphate-buffered saline (PBS) containing 3 μg/mL of HuCXCL1, 2, 3 or 5 or MsCXCL1 or 10 μg/mL of MsCXCL2 was added in a volume of 50 μL per well, and the plates were allowed to stand overnight at 4° C. After removal of the antigen solutions, PBS containing 0.05% Tween-20 (hereinafter referred to as the blocking solution) was added to each well for blocking reaction, and the plates were allowed to stand at room temperature for 30 minutes. […] TMB (Dako) was added as a chromogenic substrate solution to cause color development, and 1 N sulfuric acid was added to stop the reaction, followed by measurement of absorbance at 450 nm. The binding rate of CXCLs to GAG was calculated as a ratio relative to the absorbance measured in the absence of the antibody, which was set to 100%.

human CXCL3 = target: T2, human CXCL3 (human, UniProt P19876 35-107, limits assumed); assay: blocking ELISA: HuCXCL3 immobilised, antibody 0 to 10 µg/mL, then biotin-labeled heparin 10 µg/mL (blocked ligand: heparin); panel HuCXCL3
T2 construct: also called HuCXCL3
T2 sequence (looked up): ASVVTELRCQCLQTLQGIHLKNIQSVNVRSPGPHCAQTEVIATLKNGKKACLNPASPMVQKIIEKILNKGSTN
Method: as §1, §2

human CXCL5 = target: T3, human CXCL5 (human, UniProt P42830 37-114, limits assumed); assay: blocking ELISA: HuCXCL5 immobilised, antibody 0 to 10 µg/mL, then biotin-labeled heparin 10 µg/mL (blocked ligand: heparin); panel HuCXCL5
T3 construct: also called HuCXCL5
T3 sequence (looked up): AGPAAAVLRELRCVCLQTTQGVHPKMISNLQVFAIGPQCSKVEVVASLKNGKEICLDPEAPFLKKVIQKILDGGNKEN
Method: as §1, §2

mouse CXCL1 = target: T4, mouse CXCL1 (mouse, UniProt P12850 25-96, limits assumed); assay: blocking ELISA: MsCXCL1 immobilised, antibody 0 to 10 µg/mL, then biotin-labeled heparin 10 µg/mL (blocked ligand: heparin); panel MsCXCL1
T4 construct: also called MsCXCL1
T4 sequence (looked up): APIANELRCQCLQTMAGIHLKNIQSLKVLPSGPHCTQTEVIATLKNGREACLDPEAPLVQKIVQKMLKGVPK
Method: as §1, §2

human CXCL2 = target: T5, human CXCL2 (human, UniProt P19875 35-107, limits assumed); assay: blocking ELISA: HuCXCL2 immobilised, antibody 0 to 10 µg/mL, then biotin-labeled heparan sulfate 10 µg/mL (blocked ligand: heparan sulfate); panel HuCXCL2
T5 construct: also called HuCXCL2
T5 sequence (looked up): T1 sequence with S2P, V3L, P20L, N27K, R48Q, I58M, N68K, S69N, D70G
Method: as §1, §2

human CXCL1 protein [4] = target: T1, human CXCL1 protein; assay: antigen-immobilized ELISA, HuCXCL1 on the plate, absorbance (lower right panel)
human CXCL1 protein [5] = target: T1, human CXCL1 protein; assay: antigen-immobilized ELISA, HuCXCL1 on the plate, absorbance (upper right panel; label printed mh4A-7H10, taken as the 4A-2F7 panel)
human CXCL1 protein [6] = target: T1, human CXCL1 protein; assay: antigen-immobilized ELISA, HuCXCL1 on the plate, absorbance (upper right panel; chimeric label printed mh4A-7H10, taken as the 4A-2F7 panel)

B1: 5A-5E11 (antibody, V domains shown)
VH: QVQLQQSGAELVRPGSSVKISCKASGYAFSDYWMNWVKQRPGQGLEWIGQIYPGDGDTNYNGKFKGKGTLTADKSSSTAYMQLNSLTSEDSAVYFCARERDYDVAMDYWGQGTSVTVSS
VL: DIQMTQSPSSLSASLGGKVTITCKASQDINKYIAWFQHKPGKGPRLVIHYTSILQPGIPSRFSGVGSGRDYSFSIRNLEPEDIATYYCLQYDNLPWTFGGGTKLEIK
HuCXCL1 neutralizing activity EC50 (nM), Ca^2+ Flux assay (human CXCL1 protein [1]): 3.96 nM

B2: Hu5A-5E11 VH1/VL1 (antibody, V domains shown)
VH: QVQLVQSGAEVKKPGSSVKVSCKASGYAFSDYWMNWVRQAPGQGLEWIGQIYPGSGDTNYNAKFKGKGTITADKSTSTAYMELSSLRSEDTAVYYCARERDYDVAMDYWGQGTTVTVSS
VL: DIQMTQSPSSLSASVGDRVTITCKASQDINKYIAWFQQKPGKAPKLVIHYTSILQPGVPSRFSGSGSGTDYTFTISSLQPEDIATYYCLQYDNLPWTFGGGTKVEIK
notes: also called humanized Hu5A-5E11
EC50 (read off the curve) (human CXCL1 protein [2]): ~0.02 µg/mL
IC50 (read off the curve) (human CXCL1 protein [3]): ~0.6 µg/mL
IC50 (read off the curve) (human CXCL3): ~0.5 µg/mL
binding result (human CXCL5): binds
IC50 (read off the curve) (mouse CXCL1): ~0.6 µg/mL
IC50 (read off the curve) (human CXCL2): ~0.8 µg/mL

B6: 028-8-12 (antibody, V domains shown)
VH: EVQLLESGGGLVQPGGSLRLSCAASGFTFSELSMSWVRQAPGKGLEWVSAISGSGGSTYYADSVKGRFTISRDNSKNTLYLQMNSLRAEDTAVYYCAREGGRLEPYYYYYAMDVWGQGTPVTVSS
VL: DIQMTQSPSSLSASVGDRVTITCRASQSISDNLHWYQQKPGKAPKLLIYDASNLESGVPSRFSGSGSGTDFTLTINSLQPEDFATYYCQQYYSTPLTFGQGTKLEIK
notes: Unmodified human antibody obtained by the human ADLib technique; also called ADLib#028-08-12; ADLib #028-8-12
HuCXCL1 neutralizing activity EC50 (nM), Ca^2+ Flux assay (human CXCL1 protein [1]): 5.73 nM
EC50 (read off the curve) (human CXCL1 protein [4]): ~0.04 µg/mL

B7: ADLib#028-8-12_VH1/VL1 (antibody, V domains shown)
VH: B6 VH with D62S
VL: B6 VL with N76S
notes: Amino acid-modified human antibody; also called modified human antibody 028-8-12
EC50 (read off the curve) (human CXCL1 protein [4]): ~0.04 µg/mL

B8: 4A-2F7 (antibody, V domains shown)
VH: QVTLKESGPGILKPSQTLSLTCSFSGFSLSTSGMGVDWIRQPSGKGLEWLAHIWWDDDKYYNPSLKSQLTISKDTSRNQVFLKITSVDTADTATYYCARSYGYDMDYYAMDYWGQGTSVTVSS
VL: DIQMTQSPSSLSASLGERVSLTCRASQEISGYLSWLQQKPDGTIKRLIYAASTLDSGVPKRFSGSRSGSDYSLTISSLESEDFADYYCLQYASYPPWTFGGGTKLEIK
HuCXCL1 neutralizing activity EC50 (nM), Ca^2+ Flux assay (human CXCL1 protein [1]): 4.8 nM

B10: 1A-7H10 (antibody, V domains shown)
VH: QVQLKESGPVLVAPSQSLSITCSVSGFSSTTYGVHWVRQPPGQGLEWLGVIWAGGSTNYNSALMSRLSISKDNSKSQVFLKMNSLQTDDTAMYYCATQYHYPFAYWGQGTLVTVSA
VL: NIVMTQSPKSMSMSVGERVTLSCKASENVGIYVSWYQQKPEQSPKLMIYGASNRNTGVPDRFTGSGSATDFTLTISSVQAEDLADYYCGQSYSYPLTFGAGTKLELK
HuCXCL1 neutralizing activity EC50 (nM), Ca^2+ Flux assay (human CXCL1 protein [1]): 6.24 nM

B11: Hu4A-2F7 VH1/VL1 (antibody, V domains shown)
VH: QVTLKESGPALVKPTQTLTLTCTFSGFSLSTSGMGVDWIRQPPGKALEWLAHIWWDDDKYYNPSLKSQLTISKDTSKNQVVLTMTNMDPVDTATYYCARSYGYDMDYYAMDYWGQGTTVTVSS
VL: DIQMTQSPSSLSASVGDRVTITCRASQEISGYLSWLQQKPGKAPKRLIYAASTLSSGVPSRFSGSGSGTDFTLTISSLQPEDFATYYCLQYASYPPWTFGGGTKVEIK
EC50 (read off the curve) (human CXCL1 protein [6]): ~0.02 µg/mL

B13: Hu4A-2F7 VH1/VL2 (antibody, V domains shown)
VH: B11 VH
VL: B11 VL with F71Y
notes: Humanized antibody
EC50 (read off the curve) (human CXCL1 protein [6]): ~0.02 µg/mL

Further lines, results first:

EC50 (read off the curve) (human CXCL1 protein [2]): ~0.02 µg/mL
B3: Hu5A-5E11 VH2/VL1 (antibody, V domains shown)
VH: B2 VH with I70L
VL: B2 VL
notes: Humanized antibody

EC50 (read off the curve) (human CXCL1 protein [2]): ~0.02 µg/mL
B4: Hu5A-5E11 VH2/VL2 (antibody, V domains shown)
VH: B2 VH with I70L
VL: B2 VL with S65V
notes: Humanized antibody

EC50 (read off the curve) (human CXCL1 protein [2]): ~0.02 µg/mL
B5: Hu5A-5E11 VH1/VL2 (antibody, V domains shown)
VH: B2 VH
VL: B2 VL with S65V
notes: Humanized antibody

EC50 (read off the curve) (human CXCL1 protein [5]): ~0.02 µg/mL
B9: mh4A-2F7_VH/VL1 (antibody, V domains shown)
VH: B8 VH
VL: B8 VL with D55S

EC50 (read off the curve) (human CXCL1 protein [6]): ~0.02 µg/mL
B12: Hu4A-2F7 VH2/VL1 (antibody, V domains shown)
VH: B11 VH with A46G
VL: B11 VL
notes: Humanized antibody

EC50 (read off the curve) (human CXCL1 protein [6]): ~0.02 µg/mL
B14: Hu4A-2F7 VH2/VL2 (antibody, V domains shown)
VH: B11 VH with A46G
VL: B11 VL with F71Y
notes: Humanized antibody
